Test results reported in article PMC12646314, “Structure and encapsulation of carbonic anhydrase within the α-carboxysome” (Proceedings of the National Academy of Sciences of the …, 2025).

T1: CsoS4A-CsoS1A minishell (Construct 4, S4A-S1A) (Halothiobacillus neapolitanus, UniProt O85043 1-83; P45689 1-98)
T1 construct: CsoS4A, shell pentamer of H. neapolitanus; CsoS1A, major shell hexamer of H. neapolitanus; Icosahedral shells, T = 3 and T = 4 populations; also called minishells; mini-α-shells; source: E. coli TOP10, purified (sucrose cushion and gradient, HiTrap Q FF anion exchange)
T1 sequence 1: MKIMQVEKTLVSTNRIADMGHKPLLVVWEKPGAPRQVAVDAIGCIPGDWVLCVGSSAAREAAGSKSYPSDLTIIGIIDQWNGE
T1 sequence 2: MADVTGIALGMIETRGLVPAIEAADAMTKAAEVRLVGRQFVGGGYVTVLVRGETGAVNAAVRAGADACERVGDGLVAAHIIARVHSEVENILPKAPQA


What was measured:
[1] = target: the molecule itself; experiment: SEC-MALS; Superdex 200 Increase 10/300 GL, 0.70 mL/min, Buffer W (100 mM Tris/HCl pH 8, 150 mM NaCl, 1 mM EDTA), room temperature; injected at 5.6 mg/mL (CsoSCA), 0.9 mg/mL (CsoSCA-N), 1 mg/mL (CsoSCA^ΔC), 1.9 mg/mL (CsoSCA-C)
[2] = target: the molecule itself; experiment: cryo-EM structure; single-particle cryo-EM of purified T = 4 minishell/CsoSCA^ΔC (2.36 Å symmetry relaxed) and minishell/CsoSCA-C (3.05 Å); internal density seen at low contour, disordered
[3] = target: T1, CsoS4A-CsoS1A minishell (Construct 4, …); experiment: co-purification with assembled minishells (sucrose cushion and gradient, anion exchange), immunoblot; CsoSCA constructs coexpressed with minishell constructs in E. coli TOP10; minishells purified; samples normalised to CsoS1A; anti-His blot; conditions: partners not purified

Binder	stoichiometry N [2]	other results
Twin-Strep-GB1-CsoSCA (Halothiobacillus neapolitanus carboxysomal carbonic anhydrase) (enzyme, CsoSCA, alpha-carboxysomal beta-class carbonic anhydrase of Halothiobacillus neapolitanus; UniProt O85042; the domain scheme runs from residue 1 to 514; Vector pETM11; TEV protease was used to remove the tags only for DLS; also called HnCsoSCA; source: Superdex 200 for cryo-EM; not shown: Twin-Strep, N-terminal, kept) NTRNTRSKQRAPFGVSSSVKPRLDLIEQAPNPAYDRHPACITLPERTCRHPLTDLEANEQLGRCEDSVKNRFDRVIPFLQVVAGIPLGLDYVTRVQELAQSSLGHTLPEELLKDNWISGHNLKGIFGYATAKALTAATEQFSRKIMSEKDDSASAIGFFLDCGFHAVDISPCADGRLKGLLPYILRLPLTAFTYRKAYAGSMFDIEDDLAQWEKNELRRYREGVPNTADQPTRYLKIAVYHFSTSDPTHSGCAAHGSNDRAALEAALTQLMKFREAVENAHCCGASIDILLIGVDTDTDAIRVHIPDSKGFLNPYRYVDNTVTYAQTLHLAPDEARVIIHEAILNANRSDGWAKGNGVASEGMRRFIGQLLINNLSQIDYVVNRHGGRYPPNDIGHAERYISVGDGFDEVQIRNLAYYAHLDTVEENAIDVDVGIKIFTKLNLSRGLPIPIAIHYRYDPNVPGSRERTVVKARRIYNAIKERFSSLDEQNLLQFRLSVQAQDIGSPIEEVASA	–	stoichiometry N [1]: 6
CsoS4A (shell pentamer) (natural protein, Halothiobacillus neapolitanus, CsoS4A, alpha-carboxysome shell vertex protein of H. neapolitanus; also called CsoS4A pentamer; source: E. coli TOP10, expressed from the minishell construct, in purified minishells) MKIMQVEKTLVSTNRIADMGHKPLLVVWEKPGAPRQVAVDAIGCIPGDWVLCVGSSAAREAAGSKSYPSDLTIIGIIDQWNGE	5	–
CsoS1A (the major shell hexamer) (natural protein, Halothiobacillus neapolitanus, CsoS1A, major alpha-carboxysome shell protein of H. neapolitanus; also called CsoS1A shell hexamer; source: E. coli TOP10, expressed from the minishell construct; in lysate (pull-down) and in purified minishells (cryo-EM)) MADVTGIALGMIETRGLVPAIEAADAMTKAAEVRLVGRQFVGGGYVTVLVRGETGAVNAAVRAGADACERVGDGLVAAHIIARVHSEVENILPKAPQA	6	–
CsoSCA-His6 (CsoSCA fused to a C-terminal His6 tag) (enzyme, Halothiobacillus neapolitanus, UniProt O85042 1-514, looked up, CsoSCA of H. neapolitanus, UniProt O85042; called full-length CsoSCA in the discussion; also called full-length CsoSCA; source: E. coli TOP10, coexpressed with minishell constructs, co-purified with minishells; not shown: His6, C-terminal, kept) MNTRNTRSKQRAPFGVSSSVKPRLDLIEQAPNPAYDRHPACITLPERTCRHPLTDLEANEQLGRCEDSVKNRFDRVIPFLQVVAGIPLGLDYVTRVQELAQSSLGHTLPEELLKDNWISGHNLKGIFGYATAKALTAATEQFSRKIMSEKDDSASAIGFFLDCGFHAVDISPCADGRLKGLLPYILRLPLTAFTYRKAYAGSMFDIEDDLAQWEKNELRRYREGVPNTADQPTRYLKIAVYHFSTSDPTHSGCAAHGSNDRAALEAALTQLMKFREAVENAHCCGASIDILLIGVDTDTDAIRVHIPDSKGFLNPYRYVDNTVTYAQTLHLAPDEARVIIHEAILNANRSDGWAKGNGVASEGMRRFIGQLLINNLSQIDYVVNRHGGRYPPNDIGHAERYISVGDGFDEVQIRNLAYYAHLDTVEENAIDVDVGIKIFTKLNLSRGLPIPIAIHYRYDPNVPGSRERTVVKARRIYNAIKERFSSLDEQNLLQFRLSVQAQDIGSPIEEVASA	–	fold copurified CsoSCA, against minishells with CsoS2 [3]: ≥ 4 fold
